This is an account of results in patent US20150098945A1 (Daiichi Sankyo, published 2015).

This experiment has as its target T1, N-terminal FLAG-tagged full-length human ROBO4 (pCI-FLAG-hROBO4-28) (human, UniProt Q8WZ75 28-1007).
T1 construct: On transfected HEK293 cells
T1 sequence: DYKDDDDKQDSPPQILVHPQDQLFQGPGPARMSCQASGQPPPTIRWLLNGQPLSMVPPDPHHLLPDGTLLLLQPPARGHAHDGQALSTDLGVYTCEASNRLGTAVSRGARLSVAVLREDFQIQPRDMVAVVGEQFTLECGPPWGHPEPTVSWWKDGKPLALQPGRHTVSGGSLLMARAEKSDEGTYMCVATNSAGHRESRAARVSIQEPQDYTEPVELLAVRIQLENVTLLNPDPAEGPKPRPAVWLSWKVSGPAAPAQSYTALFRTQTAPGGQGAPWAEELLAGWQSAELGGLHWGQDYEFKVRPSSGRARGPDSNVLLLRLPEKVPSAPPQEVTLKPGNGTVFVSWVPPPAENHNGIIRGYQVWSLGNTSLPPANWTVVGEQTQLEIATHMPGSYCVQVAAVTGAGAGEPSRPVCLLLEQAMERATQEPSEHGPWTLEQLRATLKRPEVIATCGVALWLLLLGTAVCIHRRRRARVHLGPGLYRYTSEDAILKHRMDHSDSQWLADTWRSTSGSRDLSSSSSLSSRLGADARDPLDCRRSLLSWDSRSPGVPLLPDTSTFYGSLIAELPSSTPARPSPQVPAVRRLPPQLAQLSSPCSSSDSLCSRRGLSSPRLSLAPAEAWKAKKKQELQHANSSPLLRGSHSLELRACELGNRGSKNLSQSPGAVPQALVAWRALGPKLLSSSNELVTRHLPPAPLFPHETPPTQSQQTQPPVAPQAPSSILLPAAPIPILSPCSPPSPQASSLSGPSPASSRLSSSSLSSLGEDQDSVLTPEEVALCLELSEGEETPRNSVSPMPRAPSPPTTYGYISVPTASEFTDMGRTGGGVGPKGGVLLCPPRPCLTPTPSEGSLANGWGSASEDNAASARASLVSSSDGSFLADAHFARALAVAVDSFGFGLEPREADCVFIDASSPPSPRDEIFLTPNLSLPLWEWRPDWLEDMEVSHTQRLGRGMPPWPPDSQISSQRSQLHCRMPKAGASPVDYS
In words: flow cytometry, HEK293 cells transfected with pCI-FLAG-hROBO4-28, antibody at 10 µg/mL, anti-mouse IgG FITC; control histogram IgG (Mouse IgG2a). The procedure:
HEK293 cells were inoculated at a concentration of 1.5×10⁶ cells/dish to a 60-mm dish (manufactured by Corning Inc.) and cultured overnight in a DMEM medium containing 10% FBS at 37° C. under 5% CO₂ conditions. […] On the next day, the expression vector-transfected cells were treated with TrypLE Express (manufactured by Life Technologies Corp.), washed with PBS containing 5% FBS, and then suspended in PBS containing 5% FBS. The obtained cell suspension was used in flow cytometry analysis.
Each cell suspension prepared in 4)-5-1 was centrifuged, and the supernatant was removed. Then, MAb1, a positive control Monoclonal ANTI-FLAG M2 antibody produced in mouse, or a negative control Mouse IgG2a was added at a concentration of 10 μg/mL to 2×10⁵ expression vector-transfected cells, and the resulting suspension was left standing at 4° C. for 1 hour. The cells were washed once with PBS containing 5% FBS. Then, Anti-Mouse IgG FITC conjugate diluted 1000-fold with PBS containing 5% FBS was added thereto, and the resulting suspension was left standing at 4° C. for 1 hour. […] Data was analyzed using Flowjo. The histogram of FITC fluorescence intensity was prepared. The antibody was determined to bind to a cell when the histogram of MAb1 was shifted to a stronger fluorescence intensity region compared with the histogram of the negative control Mouse IgG2a. […]
(In flow cytometry, cells or beads pass a laser one at a time.)

B1: anti-ROBO4 mouse monoclonal antibody MAb1 (antibody, mouse IgG1, V domains shown)
VH: EVQLVESGGGLVKPGGSLKLSCAASGFTFSTYAMSWVRQTPEKRLEWVATISNGGTYTYYPDSVKGRFTISRDNAENTLYLQMSSLRSEDTAMYFCARLIYYDYLDYWGHGTTLTVSS
VL: DAVMTQTPLSLPVSLGDQASISCRSSQSLENSNGNTYLNWYFQKPGQSPQLLIYRVSNRFSGVLDRFSGSGSGTDFTLKISRVEAEDFGVYFCLQVTHVPWTFGGGTKLEIKR
notes: Mouse IgG1 (gamma1), kappa light chain, purified from hybridoma supernatant; also called parent antibody MAb1
Regarding B1, the binding result is reported as “binds”.
